# Laboratory results from patent publication US20250177548A1, “FUSOGENIC PEPTIDE COMPOSITIONS AND METHODS OF CARGO DELIVERY” (CLEMSON UNIVERSITY, priority 2022, published 2025).
# Non-standard residues stand in square brackets, D forms with d. No end group written: not given here. pG = not defined here
# What was measured:
# RNase A = assay: gel assay of siRNA protection from RNase A degradation; format: in vitro ADME; conditions: 1 hour, several N:P ratios
# Protocol: Gel Shift Assays. DIVA3, DIV3H, and DIV3W (all three denoted as DIV3 (X)) peptides suspended in RNase-free water (10 μM), were thawed, and kept on ice prior to complexation with 10 μM of negative control siGENOME non-targeting siRNA #5 (siNT, GE Healthcare Dharmacon, Lafayette, CO) in RNase-free water and incubated for 20 minutes at room temperature to allow the formation of DIV3 (X)-siNT complexes. Various molar ratios of peptides were complexed with siNT at increasing N:P molar ratios to determine the minimum molar ratio necessary to completely complex free siRNAs using an electrophoretic mobility shift assay. To determine the ability of each peptide variant to protect siRNAs from degradation, DIV3 (X)-siNT complexes or siNT alone was left untreated or incubated with either 50% v/v FBS or 5 μg/mL RNase A at 37° C. for one hour. Next, complexes were dissociated using 6% sodium dodecyl sulfate (SDS). Samples were added to a 2% agarose gel and run at 100 V. Gels were stained with ethidium bromide, destained with Milli-Q water, and imaged using a ChemiDoc XRS imager (Bio-Rad, Hercules, CA).
# Characterization of Nanoparticle Size and Stability. To determine the minimum molar ratio necessary to completely complex free siRNAs, increasing N:P molar ratios of LHRH, DIV3W, and LHRH-DIV3W peptide were complexed with siRNAs and electrophoresed using a electrophoretic mobility shift assay. Molar ratios, shown as N:P, are representations of the molar amine peptide content in relation to 1 mole of phosphate group siRNA content. To determine the ability of the peptides to protect siRNAs from serum- or RNase-mediated degradation, LHRH and LHRH-DIV3W complexes were formed in RNase-free water with siNT at increasing N:P molar ratios and incubated at 37° C., 5% CO2, 50% v/v FBS, 5 μg/mL RNase A, or 50% v/v RNase free water for 1 hour. Peptide/siRNA complexes were dissociated using 6% sodium dodecyl sulfate (SDS) prior to electrophoresis in a 2% agarose gel run at 100 V. Gels were stained with ethidium bromide, washed with Milli-Q water, and imaged with a BioRad ChemiDoc XRS imager (BioRad, Hercules, CA).
# Peptides VA-LD and GF-LD, comprising the cleavable linker VA or GLFG, respectively, between the LHRH target sequence and the DIV3W peptide, and non targeting siRNA were electrostatically complexed at increasing N:P ratios then subjected to agarose gel electrophoresis to determine optimal siRNA binding for each peptide. […] Peptide-siRNA nanocomplexes at increasing N:P ratios for peptides for VA-LD (FIG. 30A) and GF-LD (FIG. 30C) were incubated in either Rnase A enzyme or in 50% fetal bovine serum (FBS) for 1 h, dissociated using SDS then subjected to gel electrophoresis to visualize siRNA bands. Gels showing increasing N:P ratios of peptide:siRNA for VA-LD (FIG. 30B) and GF-LD (FIG. 30D) from 20:1 to 80:1 N:P; white bands are indicative of intact siRNA
# [1] = dynamic light scattering, size and zeta potential of peptide/siRNA complexes; format: physicochemical; conditions: LHRH-DIV3W peptide/siRNA complexes
# Protocol: Dynamic Light Scattering and Transmission Electron Microscopy. DIV3 (X)-siNT complexes were prepared at 2 mg/mL in RNase-free water. Hydrodynamic size and surface charge of the peptide/siRNA complexes were determined using a Nano ZS Zetasizer (Malvern Pananalytical, Malvern, UK). All data were recorded using Malvern's Zetasizer software.
# To determine nanoparticle size and zeta potential, peptides resuspended in RNase-free water (10 μM) were thawed and kept on ice prior to complexation with 10 μM of siNT in RNase-free water and incubated for 20 minutes at room temperature to form DIV3W-siNT and LHRH-DIV3W-siNT complexes. Peptide complexes were prepared at 2 mg/mL in RNase-free water. Hydrodynamic size and surface charge analysis was conducted using a Malvern Nano ZS Zetasizer (Malvern Panalytical, Malvern, UK). All data was analyzed using Malvern's Zetasizer software.
substance,measurement,setting,value
pGHWSY-(d) LLRPGGGGGWEADIVADIVWDIVADIVAGGG-(d) RRRRRRRRR ([pG]HWSY[dL]LRPGGGGGWEADIVADIVWDIVADIVAGGG[dR][dR][dR][dR][dR][dR][dR][dR][dR]; reading uncertain) [LHRH-DIV3W],intact siRNA after incubation with RNase A,RNase A,Higher N:P ratios were required for full protection
same,nanoparticle size (DLS),[1],154.2±15.9 nm
same,polydispersity index,[1],0.18
same,zeta potential (positive charge),[1],33.37±2.00 mV
